Test [1] has as its target hLH/CGR C-terminally fused to the BRET donor Rluc8 (human) (UniProt P22888).
Test [2] concerns the target human LH/CGR (wild type, without BRET fusion) (human) (UniProt P22888).
Test [3] deals with mouse LHR endogenously expressed in mLTC-1 cells (mouse (endogenous in mLTC-1)) (UniProt P30730).
Chain of UniProt P30730 (P30730 27-700): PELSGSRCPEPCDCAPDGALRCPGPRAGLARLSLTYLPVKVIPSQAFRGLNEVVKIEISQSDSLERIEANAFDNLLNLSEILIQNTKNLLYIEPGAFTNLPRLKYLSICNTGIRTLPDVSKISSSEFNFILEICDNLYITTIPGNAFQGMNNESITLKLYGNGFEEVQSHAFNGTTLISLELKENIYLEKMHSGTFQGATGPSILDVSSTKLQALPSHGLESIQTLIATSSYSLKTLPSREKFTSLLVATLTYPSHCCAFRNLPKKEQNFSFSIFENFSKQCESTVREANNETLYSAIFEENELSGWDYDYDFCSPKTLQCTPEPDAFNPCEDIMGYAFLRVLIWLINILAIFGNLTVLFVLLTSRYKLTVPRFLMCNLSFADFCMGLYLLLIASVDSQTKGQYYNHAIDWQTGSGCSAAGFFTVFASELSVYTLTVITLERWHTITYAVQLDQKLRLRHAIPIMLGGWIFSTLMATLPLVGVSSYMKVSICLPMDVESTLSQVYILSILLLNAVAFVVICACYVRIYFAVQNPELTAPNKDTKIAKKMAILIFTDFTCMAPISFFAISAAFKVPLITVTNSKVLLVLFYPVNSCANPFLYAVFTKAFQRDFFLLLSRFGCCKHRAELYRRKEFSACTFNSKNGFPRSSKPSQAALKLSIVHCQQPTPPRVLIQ

In the case of “human recombinant luteinizing hormone rhLH (Luveris) (from UniProt P01215 25-116; P01229 21-141) (ligand)”, the β-arrestin 2 recruitment (BRET between hLH/CGR-Rluc8 and yPET-β-arrestin 2) in HEK293 cells, 30 minutes with increasing doses; EC50 in test [1] was found to be 129 nM. Further, in test [2], the Cre-reporter assay (pSOM-Luc luciferase) in HEK293 cells expressing hLH/CGR, 6 hours with increasing doses; EC50 was determined as 215 pM and the cAMP production (BRET sensor CAMYEL) in HEK293 cells expressing hLH/CGR, 30 minutes with increasing doses; EC50 stood at 0.286 nM. Also, in test [3], the Cre-reporter assay (pSOM-Luc luciferase) in mLTC-1 cells, 6 hours with increasing doses; EC50 turned out to be 318 pM; the cAMP (BRET sensor CAMYEL) in mLTC-1 cells, 30 minutes with increasing doses; EC50 worked out at 0.459 nM; the cAMP (HTRF) in native mLTC-1 cells, 30 minutes with increasing doses; EC50 was 1.98 nM; the progesterone production by mLTC-1 cells (ELISA of supernatants), 3 hours with increasing doses; EC50 worked out at 0.306 nM. The same substance registered a testosterone production by mLTC-1 cells (HTRF of supernatants), 3 hours with increasing doses; EC50 in test [3] of 0.0291 nM.
Take “recombinant human chorionic gonadotropin rhCG (Ovitrelle) (from UniProt P01215 25-116; P0DN86 21-165) (ligand)”: the β-arrestin 2 recruitment (BRET between hLH/CGR-Rluc8 and yPET-β-arrestin 2) in HEK293 cells, 30 minutes with increasing doses; EC50 in test [1] is 10.3 nM. In test [2], this substance came in with a Cre-reporter assay (pSOM-Luc luciferase) in HEK293 cells expressing hLH/CGR, 6 hours with increasing doses; EC50 of 37.5 pM and a cAMP production (BRET sensor CAMYEL) in HEK293 cells expressing hLH/CGR, 30 minutes with increasing doses; EC50 of 0.0176 nM. In test [3], this substance had a Cre-reporter assay (pSOM-Luc luciferase) in mLTC-1 cells, 6 hours with increasing doses; EC50 of 25 pM; a cAMP (BRET sensor CAMYEL) in mLTC-1 cells, 30 minutes with increasing doses; EC50 of 0.0688 nM; a cAMP (HTRF) in native mLTC-1 cells, 30 minutes with increasing doses; EC50 of 0.0974 nM; a progesterone production by mLTC-1 cells (ELISA of supernatants), 3 hours with increasing doses; EC50 of 0.0197 nM. This substance also yielded a testosterone production by mLTC-1 cells (HTRF of supernatants), 3 hours with increasing doses; EC50 in test [3] of 0.00219 nM.

The record behind these values is article PMC5430435.
